Experimental findings from patent US20210198377A1 (XDCEXPLORER SHANGHAI, published 2021) are described below.

In test [1] the target is T1, human TPBG (full length, on cells) (human, UniProt Q13641 32-420).
T1 sequence (looked up): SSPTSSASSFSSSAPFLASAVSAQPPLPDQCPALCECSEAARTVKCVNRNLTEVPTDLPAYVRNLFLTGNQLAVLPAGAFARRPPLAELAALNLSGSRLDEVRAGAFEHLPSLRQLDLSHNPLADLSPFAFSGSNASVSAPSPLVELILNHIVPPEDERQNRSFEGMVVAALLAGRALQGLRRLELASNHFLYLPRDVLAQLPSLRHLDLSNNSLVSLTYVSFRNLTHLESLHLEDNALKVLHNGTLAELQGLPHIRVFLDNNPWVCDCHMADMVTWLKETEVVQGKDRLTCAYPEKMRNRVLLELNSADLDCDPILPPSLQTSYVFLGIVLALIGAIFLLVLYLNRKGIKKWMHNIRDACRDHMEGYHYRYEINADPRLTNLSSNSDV
Briefly: cell-based or functional assay.

For test [2], the target named is T2, mouse TPBG (full length, on cells) (mouse, UniProt Q9Z0L0 32-426).
T2 construct: whole, on cells; On transfected CHO-K1 cells; also called mTPBG; CHO-K1-mTPBG
T2 sequence (looked up): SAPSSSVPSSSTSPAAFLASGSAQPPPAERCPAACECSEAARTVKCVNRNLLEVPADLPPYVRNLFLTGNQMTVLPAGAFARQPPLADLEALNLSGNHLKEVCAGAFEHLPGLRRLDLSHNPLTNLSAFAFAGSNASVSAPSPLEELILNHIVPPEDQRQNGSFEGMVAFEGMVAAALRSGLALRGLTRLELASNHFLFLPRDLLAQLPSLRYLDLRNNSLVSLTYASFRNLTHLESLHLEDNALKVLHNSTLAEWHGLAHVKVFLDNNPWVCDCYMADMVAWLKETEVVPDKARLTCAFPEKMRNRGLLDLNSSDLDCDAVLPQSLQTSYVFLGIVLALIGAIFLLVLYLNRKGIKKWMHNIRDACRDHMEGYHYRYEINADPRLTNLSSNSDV
Briefly: FACS on CHO-k1-mTPBG 3A3 cells.

For test [3], the target named is T1, human TPBG (full length, on cells). Kind of test: FACS on CHO-k1-hTPBG 3A2F1 cells.
Test [4] has the same target. Kind of test: FACS, HEK293 clone 293F-hTPBG 4A8. On the technique in general: In flow cytometry, cells or beads pass a laser one at a time.
The target is the same in test [5]. Kind of test: FACS, HEK293 clone 293F-hTPBG 4A9.
Test [6] has the same target. Kind of test: FACS, HEK293 clone 293F-hTPBG 4B9.
For test [7] the target is unchanged. Briefly: FACS, HEK293 clone 293F-hTPBG 4C3.
Test [8] has the same target. Briefly: FACS, HEK293 clone 293F-hTPBG 4C5.
Test [9] has the same target. Kind of test: FACS, HEK293 clone 293F-hTPBG 4E1.
The target is the same in test [10]. Briefly: FACS, HEK293 clone 293F-hTPBG 4F9.
Test [11] has the same target. Briefly: FACS, HEK293 clone 293F-hTPBG 4G1.
The target is the same in test [12]. Kind of test: FACS, HEK293 clone 293F-hTPBG 4G6.
Test [13] has the same target. Kind of test: FACS, HEK293 clone 293F-hTPBG 5A9.
Test [14] shares this target. Briefly: FACS, HEK293 clone 293F-hTPBG 5D4.
For test [15] the target is unchanged. Briefly: FACS, HEK293 clone 293F-hTPBG 5E5.
The target is the same in test [16]. Briefly: FACS, HEK293 clone 293F-hTPBG 5E6.
Test [17] has the same target. Briefly: FACS, HEK293 clone 293F-hTPBG 5G8.
For test [18] the target is unchanged. Briefly: FACS, HEK293 clone 293F-hTPBG 5H6.
In test [19] the target is cynomolgus monkey TPBG (full length, on cells) (cynomolgus monkey) (UniProt Q4R8Y9). Briefly: FACS on CHO-k1-cTPBG 3F13G4 cells.
Test [20] concerns the target T1, human TPBG (full length, on cells). Briefly: FACS, HEK293 clone 293F-hTPBG 4H12.
The target is the same in test [21]. Briefly: FACS, HEK293 clone 293F-hTPBG 5A11.
The target is the same in test [22]. Kind of test: FACS, HEK293 clone 293F-hTPBG 5C12.
Test [23] shares this target. Briefly: FACS, HEK293 clone 293F-hTPBG 5G11.
For test [24] the target is unchanged. Briefly: FACS, HEK293 clone 293F-hTPBG 4E1 (NO. 8).
Test [25] has as its target T3, human TPBG-hFc (human, UniProt Q13641 32-355).
T3 construct: also called immunogen A; hFc tagged TPBG protein; not shown: The human IgG Fc fragment of the pCpC vector (Invitrogen V044-50) and any linker to it
T3 sequence: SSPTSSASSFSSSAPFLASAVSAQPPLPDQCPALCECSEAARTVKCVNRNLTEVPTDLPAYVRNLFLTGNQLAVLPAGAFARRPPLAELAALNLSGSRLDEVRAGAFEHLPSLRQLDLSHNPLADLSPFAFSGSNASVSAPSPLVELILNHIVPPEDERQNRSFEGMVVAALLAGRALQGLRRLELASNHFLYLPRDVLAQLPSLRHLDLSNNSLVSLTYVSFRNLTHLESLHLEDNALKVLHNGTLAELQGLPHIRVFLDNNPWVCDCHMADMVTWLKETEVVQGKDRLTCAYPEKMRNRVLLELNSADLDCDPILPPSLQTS
Kind of test: ELISA, coated human TPBG-hFc 1.0 ug/mL; control IgG 2 nM. (ELISA stands for enzyme-linked immunosorbent assay.)

The target in test [26] is T3, human TPBG-hFc. Briefly: ELISA, coated human TPBG-hFc 1.0 ug/mL; control IgG 20 nM.
The target in test [27] is T3, human TPBG-hFc. Briefly: ELISA, coated human TPBG-hFc 1.0 ug/mL; control IgG 0.2 nM.
Test [28] concerns the target T3, human TPBG-hFc. Briefly: ELISA, coated human TPBG-hFc 1.0 ug/mL; control IgG 200 nM.
Test [29] concerns the target T3, human TPBG-hFc. Briefly: ELISA, coated human TPBG-hFc 1.0 ug/mL; control IgG 0.02 nM.
For test [30], the target named is T3, human TPBG-hFc. Briefly: ELISA, coated human TPBG-hFc 1.0 ug/mL; control IgG 0.002 nM.
Test [31] deals with T3, human TPBG-hFc. Briefly: ELISA, coated human TPBG-hFc 1.0 ug/mL; control IgG 0.0002 nM.
Test [32] deals with T1, human TPBG (full length, on cells). Briefly: FACS, HEK293 cell strain 5E5E9 transfected with human TPBG.
The target is the same in test [33]. Briefly: cell-based or functional assay. This is another data set of the same source.
For test [34] the target is unchanged. Briefly: cell-based or functional assay. This is another data set of the same source.
For test [35] the target is unchanged. Briefly: cell-based or functional assay. This is another data set of the same source.

Like-named read-outs stand apart in the source and are kept apart here. Where only a bound is given, the exact number is not on record here.

Turning to Control hIgG-MMAF (antibody), in test [1], the IC50 of cytotoxicity on TPBG-positive NCI-H1299 cells (CellTiter-Glo) is more than 100000 pM.

With mouse IgG control (antibody), the MFI was found to be 2.38 MFI in test [2]; 3.24 MFI in test [3]; 3.1 MFI in test [4]; 6.3 MFI in [5]; 6.3 MFI in test [6]; 3.2 MFI in test [7]. The MFI in test [8] turned out to be 5.6 MFI; in [9], 5.2 MFI; in [10], 3.9 MFI; in [11], 4 MFI; in [12], 3.1 MFI; in test [13], 5 MFI. For the same molecule, the MFI in test [14] is 3 MFI; in test [15] it was 5.6 MFI; in test [16] it was 2.6 MFI; in test [17], 6 MFI; in [18], 3 MFI; in [19], 2.66 MFI. The MFI in test [20] amounted to 4 MFI; in test [21], 4.6 MFI; in [22], 3.7 MFI; in test [23], 4.1 MFI; in [24], 4.8 MFI. Besides, the OD450nm in the test with human TPBG-hFc [25] was 0.1 OD450nm; with human TPBG-hFc [26], 0.11 OD450nm; in the test with human TPBG-hFc [27] it was 0.11 OD450nm; with human TPBG-hFc [28], 0.24 OD450nm; with human TPBG-hFc [29], 0.1 OD450nm; with human TPBG-hFc [30] it was 0.1 OD450nm. This molecule yielded an OD450nm in the test with human TPBG-hFc [31] of 0.11 OD450nm.

As for “commercial available TPBG antibody (purchased from Sigma, Lot NO: SAB1404485)”, the MFI in test [2] was determined as 135 MFI; in [3] it was 798 MFI; in test [4], 33.4 MFI; in test [5], 204 MFI; in test [6], 126 MFI; in test [7], 27.2 MFI. For the same molecule, the MFI in test [8] came to 172 MFI; in [9] it was 145 MFI; in test [10], 47.7 MFI; in [11] it was 131 MFI; in test [12] it was 31.8 MFI; in [13], 53.2 MFI. For the same molecule, the MFI amounted to 70.6 MFI in test [14]; 280 MFI in test [15]; 13.2 MFI in [16]; 168 MFI in test [17]; 36.4 MFI in test [18]; 198 MFI in test [19]. Further, the MFI in test [20] was 9.5 MFI; in test [21], 166 MFI; in test [22], 75.4 MFI; in [23], 11.3 MFI; in [24], 91.8 MFI; in test [32] it was 216 MFI. This molecule also returned a percentage of TPBG-positive cells in test [32] of 98.5%.

B1: Chimeric Antibody 28D4-MMAF (antibody, human IgG1, DAR 3, V domains shown)
VH: DVQLVESGGGLVRPGGSLKLSCAASGFTFSNYVMSWARQSPEKRLEWVAEISTGGSHTYYSDTVTGRFTISRDNAKKALYLEMSSLRSEDTAIYYCIMFYYGSSYSMDYWGQGTSVTVSS
VL: DIQMTQSTSSLSASLGDRITISCRASQDIRNYLNWYQQKPDGTVKLLIYHTSRLHSGVPSRFSGSGSGTDYSLTISNLEQEDIATYFCQQGDTLPLTFGAGTRLELK
modifications: MC-MMAF on cysteines after TCEP reduction, sites not stated
With B1, in test [33], the “IC50 of cytotoxicity on TPBG-positive NCI-H1299 cells (CellTiter-Glo)” value was determined as 210 pM. In test [34], the “IC50 of cytotoxicity on TPBG-positive NCI-H1299 cells (CellTiter-Glo)” value is 132 pM and the “IC50 of cytotoxicity on TPBG-positive NCI-H1568 cells (CellTiter-Glo)” value was determined as 66 pM. Further, the “IC50 of cytotoxicity on recombinant 293-hTPBG cells (CellTiter-Glo)” value in test [35] is 24 pM.

B2: Chimeric Antibody 12B12-MMAF (antibody, human IgG1, DAR 3, V domains shown)
VH: DVQLVESGGGLVQPGGSRKLSCAASGFTFSNFGMHWVRQAPEKGLEWVAYISSGSTSFYYADTVKGRFTISRDNPKNTLFLQMTSLRSEDTAMYYCSRTNSLLRGFFDAWGAGTTVTVSS
VL: DIVLTQSPASLAVSLGQRATISCRASQSVSSSSYTYLHWYQQKPGQPPKLLIKSASNLESGVPARFSGTGSGTDFTLNIHPVEEEDTATYYCQHSWEIPLTFGAGTKLELK
modifications: MC-MMAF on cysteines after TCEP reduction, sites not stated
As to B2, the “IC50 of cytotoxicity on TPBG-positive NCI-H1299 cells (CellTiter-Glo)” value in [33] came to 130 pM. Further, in [34], the “IC50 of cytotoxicity on TPBG-positive NCI-H1299 cells (CellTiter-Glo)” value is 40 pM and the “IC50 of cytotoxicity on TPBG-positive NCI-H1568 cells (CellTiter-Glo)” value came out at 25 pM. In addition, the “IC50 of cytotoxicity on recombinant 293-hTPBG cells (CellTiter-Glo)” value in [35] was 1 pM.
